Stoichiometry N data for twelve substances are collected here from article PMC11972413.

Holding throughout (assay): cryo-EM structure
The target in experiment [1] is tube initiator (TI) protein (bacteriophage φTE).
For experiment [2], the target named is long-tail fiber (LTF) (bacteriophage φTE).
Experiment [3] addresses puncture apparatus (PA) (bacteriophage φTE).
Experiment [4] deals with hub protein (bacteriophage φTE).
Experiment [5] addresses tail sheath protein (bacteriophage φTE).
Experiment [6] has as its target tail tube protein (bacteriophage φTE).
Experiment [7] has as its target portal protein (bacteriophage φTE).
Experiment [8] has as its target adapter protein (bacteriophage φTE).
Experiment [9] concerns the target short-tail fiber (STF) (bacteriophage φTE).
In experiment [10] the target is major capsid protein (MCP) (bacteriophage φTE).
In experiment [11] the target is tape measure protein (TMP), six-stranded part along the tail (bacteriophage φTE).
The target of experiment [12] is minor capsid protein (DEC) (bacteriophage φTE).

Consider “tube initiator (TI) protein (natural protein)”, for which the stoichiometry N (in general, the number of molecules, sites or subunits per partner or assembly) in [1] came to 6.
In experiment [2], long-tail fiber (LTF) (natural protein) came in with a stoichiometry N of 3.
“puncture apparatus (PA) (natural protein)”: the figures for the stoichiometry N in experiment [3] and in experiment [4] were 3 and 1, respectively.
tail sheath protein (natural protein) came in with a stoichiometry N in experiment [5] of 6.
In turn, tail tube protein (natural protein) had a stoichiometry N in experiment [6] of 6.
In turn, portal protein (natural protein) gave a stoichiometry N in [7] of 12.
adapter protein (natural protein) showed a stoichiometry N in experiment [8] of 12.
As to hub protein (natural protein), the stoichiometry N in experiment [4] came out at 3.
The substance “short-tail fiber (STF) (natural protein)” showed a stoichiometry N in [9] of 3.
On to “major capsid protein (MCP) (natural protein)”, for which the stoichiometry N in experiment [10] was determined as 6.
For the substance “tape measure protein (TMP), six-stranded part along the tail (natural protein)”, in experiment [11], the stoichiometry N worked out at 6.
In experiment [12], “minor capsid protein (DEC) (natural protein)” displayed a stoichiometry N of 3.
